# Measured values reported in patent US20120201835A1 (MERCK, published 2012).
# Where a chain is given by its changes, count along the chain named.
# T1: Rhesus monkey Dkk-2 (chimeric protein: N-terminal region of rhesus Dkk-1 fused to the C-terminal region of … (Rhesus monkey))
# T1 chain: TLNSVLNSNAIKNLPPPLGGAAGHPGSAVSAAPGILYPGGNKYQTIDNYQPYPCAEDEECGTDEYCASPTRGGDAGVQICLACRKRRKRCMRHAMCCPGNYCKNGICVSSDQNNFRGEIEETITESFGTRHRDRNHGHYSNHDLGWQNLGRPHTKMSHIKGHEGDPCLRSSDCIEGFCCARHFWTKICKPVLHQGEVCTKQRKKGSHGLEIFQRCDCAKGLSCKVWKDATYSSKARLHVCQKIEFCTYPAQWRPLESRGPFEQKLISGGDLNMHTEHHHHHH
# T2: Mouse Dkk-1 (mouse, UniProt O54908 32-272)
# T2 construct: Recombinant; also called MsDkk-1; murine Dkk-1
# T2 sequence (looked up): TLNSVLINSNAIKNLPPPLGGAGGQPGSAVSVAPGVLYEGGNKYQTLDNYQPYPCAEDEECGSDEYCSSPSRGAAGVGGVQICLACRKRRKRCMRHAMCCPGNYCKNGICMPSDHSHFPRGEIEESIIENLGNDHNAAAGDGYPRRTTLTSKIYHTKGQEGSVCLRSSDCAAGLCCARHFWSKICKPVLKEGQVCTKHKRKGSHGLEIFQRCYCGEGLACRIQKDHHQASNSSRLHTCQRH
# T3: Human Dkk-1 (human, UniProt O94907 32-266)
# T3 sequence: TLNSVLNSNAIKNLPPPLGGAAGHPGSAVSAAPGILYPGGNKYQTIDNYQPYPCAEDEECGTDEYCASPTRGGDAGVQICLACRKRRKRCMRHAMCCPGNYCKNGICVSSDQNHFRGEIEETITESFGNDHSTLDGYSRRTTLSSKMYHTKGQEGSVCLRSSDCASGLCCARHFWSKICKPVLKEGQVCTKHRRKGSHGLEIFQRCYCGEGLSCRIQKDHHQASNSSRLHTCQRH
# B1: RH2-18 antibody (antibody, human IgG2, lambda, V domains shown)
# VH: EVQLVQSGAEVKKPGASVKVSCKASGYTFTDYYIHWVRQAPGQGLEWMGWIHSNSGATTYAQKFQARVTMSRDTSSSTAYMELSRLESDDTAMYFCSREDYWGQGTLVTVSS
# VL: QSVLTQPPSVSGAPGQRVTISCTGSSSNIGAGYDVHWYQQLPGTAPKLLIYGYSNRPSGVPDRFSGSKSGASASLAITGLRPDDEADYYCQSYDNSLSSYVFGGGTQLTVLS
# notes: also called anti-Dkk-1 antibody RH2-18
# B2: RH2-80 antibody (antibody, human IgG2, lambda, V domains shown)
# VH: B1 VH with Q104K, L107M
# VL: QAVLTQPSSVSGAPGQRVSISCTGSSSNIGAAYDVHWYQQLPGTAPRLLIYVNNNRPSGVPDRFSGSKSGTSASLVIAGLQAEDEADYYCQSYDNSLNAYVFGTGTKLTVLG
# notes: IgG converted from the scFv, IgG2M4 heavy chain constant region
# B3: RH2-59 antibody (antibody, human IgG2, lambda, V domains shown)
# VH: B1 VH with Q104R, L107M
# VL: QAVLTQPSSVSGAPGQRVTISCTGSSSNIGAGYDVHWYQQLPGTAPKLLIYANTNRPSGIPDRFSGSKSGTSASLAITGLQTEDEADYYCQSYDTSPSASYVFGTGTKLTVLG
# notes: as for B2
# B4: RH2-80 scFv (phage clone) (scFv, V domains shown)
# VH: B1 VH with Q104K, L107M
# VL: B2 VL
# notes: Single chain Fv from the CAT phage display library (CS)
# B5: RH2-18 scFv (phage clone) (scFv, V domains shown)
# VH: EVQLVQSGAEVKKPGASVKVSCKASGYTFTDYYIHWVRQAPGQGLEWMGWIHSNSGATTYAQKFQARVTMSRDTSSSTAYMELSRLESDDTAMYFCSREDYWGQGTLVTV
# VL: B1 VL
# notes: as for B4
# B6: RH2-59 scFv (phage clone) (scFv, V domains shown)
# VH: B1 VH with Q104R, L107M
# VL: B3 VL
# notes: as for B4
# B7: RH1-10 antibody (antibody, human IgG2, lambda, V domains shown)
# VH: QVQLLQSAAEVKKPGESLKISCKGSGYDFPGYYLHWVRQAPGQGLEWMGWINANSGATNYAQNFQGRVTMTRDTSISAAYMELSSLRSDDTAVYYCTREDHWGRGTTVTVSS
# VL: QSVLTQPPSASGAPGQRVTISCTGSSSNIGAGYDVHWYQQLPGAAPKLLIYGNSNRPSGVPDRFSGSKSGTSASLAITGLQAEDEADYYCQSYDSSLSGYVFGTGTKVTVLG
# notes: as for B2
# B8: RH1-10 scFv (phage clone) (scFv, V domains shown)
# VH: B7 VH
# VL: B7 VL
# notes: Single chain Fv from the CAT phage display library (BMV)
# Columns and labels:
# [1] = target: T1, Rhesus monkey Dkk-2 (chimeric protein: …); test: dot blot of native recombinant protein (0 to 100 ng per spot) probed with RH2-18
# Experimental: Native recombinant rhesus monkey Dkk-1, Dkk-2, and cynomolgus monkey Dkk-4 proteins (0.1 ng to 100 ng) were used. A non-related recombinant protein was loaded as a control for non-specific assay signal (HIS protein) and probed with the RH2-18 antibodies.
# The Dkk-1 amino acid sequence is closely related to that of Dkk-2 and Dkk-4 with 50% and 45% identity at the amino acid-level, respectively. Cross-reactivity of RH2-18 against rhesus monkey Dkk-2 (using a chimeric protein consisting of the N-terminal region of the rhesus Dkk-1 fused to the C-terminal region of the rhesus Dkk-2 with myc and His-6 tags at the C-terminal end of the Dkk-2 C-terminal region; see SEQ ID NO:71) and cynomolgus monkey Dkk-4 (SEQ ID NO:70) was tested by dot-blot analysis using recombinant proteins. Native recombinant rhesus monkey Dkk-1, Dkk-2, and cynomolgus monkey Dkk-4 proteins (0.1 ng to 100 ng) were used. A non-related recombinant protein was loaded as a control for non-specific assay signal (HIS protein). The dot blots were probed with RH2-18. […] Selectivity of the antibody towards Dkk-1 was minimally 100-fold.
# Mouse Dkk-1 [2] = target: T2, Mouse Dkk-1; test: TRF cell assay, inhibition of Eu-labeled mouse Dkk-1 binding to cells
# Experimental: For the assay, the anti-Dkk-1 antibodies were added to HEK cells overexpressing LRP5 (HEK293hLrp5 cells) at final concentrations of 0.2, 0.6, 2.0, 6.0, and 20 nM. Anti-IL3 Receptor monoclonal antibody (8B4) was used as a negative control. Eu-labeled Dkk-1 (100 pM) was incubated with the cells in absence or presence of the antibodies for 20 minutes. Dkk-1 bound in solution by the antibodies and thus blocked from binding to the cell surface of the HEK293hLrp5 cells was removed by 4× wash steps and Eu-labeled Dkk-1 bound to cell surface was measured by TRF signal. Eu-labeled Dkk-1 protein binding to HEK293 cells overexpressing human LRP5 or LRP6 was monitored by measuring the time-resolved fluorescence of bound ligand.
# [3] = target: Rhesus monkey Dkk-1 (Rhesus monkey); test: dot blot of native recombinant proteins, 0.1 ng to 100 ng
# [4] = target: Rhesus monkey Dkk-1 (Rhesus monkey); test: TRF cell-based blocking assay: Eu-labeled rhesus Dkk-1 binding to human LRP5 on HEK293hLrp5 cells, RH2-18 titrated over an extended range; no unit is printed beside the number or on the log axis, M follows from 4.75 nM in paragraph 132
# Human Dkk-1 [5] = target: T3, Human Dkk-1; test: SPR, Biacore 3000, several independent runs with different antibody lots
# Experimental: (§1) The affinity of the RH2-18 antibody for human Dkk-1 and Rhesus Dkk-1 was determined by measuring RH2-18 binding kinetics by surface plasmon resonance in a Biacore 3000 instrument according to manufacturer's instructions (Biacore, Inc., Piscataway, N.J.). Several independent affinity studies were performed using different RH2-18 antibody lots against human Dkk-1 and rhesus Dkk-1.
# [6] = target: Rhesus monkey Dkk-1 (Rhesus monkey); test: TRF cell assay, inhibition of Eu-Dkk-1 binding to HEK293hLrp5 cells, extended dose range
# [7] = target: Rhesus monkey Dkk-1 (Rhesus monkey); test: SPR, Biacore 3000, several independent runs with different antibody lots
# [8] = target: Rhesus monkey Dkk-1 (Rhesus monkey); test: cell-based or functional assay
# [9] = target: Rhesus monkey Dkk-1 (Rhesus monkey); test: TRF cell assay, inhibition of Eu-Dkk-1 binding to HEK293hLrp5 cells
# Human Dkk-1 [10] = target: T3, Human Dkk-1; test: SPR, Biacore 3000, mean of several independent runs
# Experimental: as §1
# [11] = target: Rhesus monkey Dkk-1 (Rhesus monkey); test: as above
# [12] = target: Rhesus monkey Dkk-1 (Rhesus monkey); test: TRF cell assay: inhibition of Eu-Dkk-1 binding to HEK293 cells overexpressing LRP5 or LRP6, scFv
# Mouse Dkk-1 [13] = target: T2, Mouse Dkk-1; test: phage ELISA (+), scFv-phage on mouse Dkk-1
Binder,binding result (Mouse Dkk-1 [2]),"pTOPflash/Lef-1 luciferase reporter in HEK293hLrp5 cells, Wnt3A plus 50 nM rhesus Dkk-1 [8] [nM]",% inhibition of Dkk-1 [12] [%],binding result (Mouse Dkk-1 [13]),other results
B1,binds,> 30,,,"binding result [1]: no binding (tested: 100 ng); detection limit for binding [3]: 1 ng; selectivity towards Dkk-1 (fold, against Dkk-2 and Dkk-4) [3]: > 100 fold; EC50 [4]: 4750 pM; Kd (Human Dkk-1 [5]): 202 to 269 pM; effective dose [6]: 5 nM; Kd [7]: 771 to 934 pM; endogenous ALP activity of C3H10T1/2 cells (osteoblastic differentiation), Wnt3A plus recombinant Dkk-1, 3 days [8]: 100 nM; inhibitory activity (concentration) [9]: 4.75 nM; Kd (Human Dkk-1 [10]): 251 pM; Kd [11]: 858 pM"
B2,binds,> 30,,,
B3,binds,,,,
B4,,,62,binds,
B5,,,74,binds,
B6,,,61,binds,
B7,binds,> 30,,,
B8,,,89,binds,
